Results published in patent US11607466B2, “Tumor and immune cell imaging based on PD-L1 expression” (The Johns Hopkins University, priority 2016, dated 2023).
Several values for one entry are separate records, joined by “and”; a condition that tells them apart may be missing. Equal values may be shown once.

What was measured:
PD-L1 in H226 xenografts = target: T1, PD-L1 in H226 xenografts (Homo sapiens, UniProt Q9NZQ7); assay: Tumor PD-L1 engagement by AtzMab measured with [64Cu]WL12, H226 xenografts; format: in vivo; settings: AtzMab 20 mg/kg for 24 h, vs saline controls
T1 construct: Each of which naturally expresses PD-L1; endogenous in cells; host or cells: HCC827 and H226 NSCLC cells; as xenografts in NOD scid gamma mice for the in vivo units
T1 sequence (Q9NZQ7 19-290): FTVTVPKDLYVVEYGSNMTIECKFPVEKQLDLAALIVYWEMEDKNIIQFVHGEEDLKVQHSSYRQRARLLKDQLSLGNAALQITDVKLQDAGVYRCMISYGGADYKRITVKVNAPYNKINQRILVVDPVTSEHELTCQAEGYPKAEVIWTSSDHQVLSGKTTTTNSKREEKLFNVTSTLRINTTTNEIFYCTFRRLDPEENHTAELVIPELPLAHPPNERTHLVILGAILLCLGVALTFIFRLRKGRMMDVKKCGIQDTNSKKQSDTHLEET
Description: (§1) 3.3.2 Quantifying Tumor PD-L1 engagement by AtzMab. To evaluate PD-L1 engagement by the therapeutic mAbs at the tumor non-invasively in vivo, NSCLC xenograft models were studied. Those models were selected because nearly 50% of NSCLCs are PD-L1-positive and PD-L1 IHC is used as a predictive biomarker in patients with NSCLC undergoing immune checkpoint therapy (Mansfield, et al., 2016). […] There is a clear reduction in the accumulation of radioactivity in tumors of AtzMab-treated mice, indicating reduced levels of available PD-L1 sites, compared to treated controls (FIG. 35A and FIG. 35B). […] PD-L1 expression levels were confirmed by PD-L1 IHC of the xenografts (FIG. 35C and FIG. 35F).

[1] = target: T2, PD-L1 in HCC827 xenografts (Homo sapiens, UniProt Q9NZQ7); assay: Tumor PD-L1 engagement by AtzMab measured with [64Cu]WL12, HCC827 xenografts; format: in vivo; settings: AtzMab 20 mg/kg for 24 h, vs saline controls
T2 construct: Each of which naturally expresses PD-L1; endogenous in cells; host or cells: HCC827 and H226 NSCLC cells; as xenografts in NOD scid gamma mice for the in vivo units
T2 sequence (Q9NZQ7 19-290): as above
Description: as §1

human PD-L1 = human PD-L1 (Homo sapiens, UniProt Q9NZQ7); settings: read-out: dissociation constant (Kd), human PD-L1; cited from earlier work
Sequence of human PD-L1 (Q9NZQ7 19-290): as above

PD-L1 in hPD-L1 cells = target: T3, PD-L1 in hPD-L1 cells (Homo sapiens, UniProt Q9NZQ7); assay: In vitro binding of [64Cu]WL12 to hPD-L1 and CHO cells; format: cell-based; settings: compared with WL12
T3 construct: expressed in transfected cells; grown as tumours in NSG mice for the in vivo units
T3 sequence (Q9NZQ7 19-290): as above
Description: 1.4.9. […] After incubation, cells were washed three times with cold PBS prior to counting on an automated gamma counter (1282 Compugamma CS, Pharmacia/LKBNuclear, Inc., Gaithersburg, Md.). […] Mean fluorescence intensity values were correlated with % incubated dose (% ID) uptake. All the cell uptake studies were performed in triplicate for each cell line and repeated three times.

[2] = Stroh, et al., 2017; cited from earlier work
[3] = target: T4, PD-L1 in A549-iPDL1 tumors (Homo sapiens, UniProt Q9NZQ7); assay: [64Cu]WL12 PET and biodistribution in A549-iPDL1 and A549 xenografts; format: in vivo; settings: AtzMab 20 mg/kg
T4 construct: expressed in transfected cells; host or cells: A549 NSCLC cells, lentiviral pINDUCER20, G418-selected, doxycycline-induced; as xenografts for the in vivo unit
T4 sequence (Q9NZQ7 19-290): as above
Description: To do so, an A549 NSCLC cell line with doxycycline-inducible PD-L1 expression (A549-iPD-L1) was generated. A549 is a Kras G12S lung adenocarcinoma cell line that expresses low PD-L1 at baseline. It has been transduced with PD-L1 in the all-in-one lentivirus pINDUCER20 vector (Meerbrey, et al., 2011), selected with G418, confirmed for PD-L1 induction by flow cytometry (FIG. 37A) and used for in vitro and in vivo studies. Cy5-PD-L1-mAbs binding to doxycycline-treated A549-iPDL1 cells was blocked by WL12 validating the specificity of WL12 (FIG. 37B). […] Accordingly, it is expected that PET will play a key role in quantifying dynamic changes in PD-L1 expression within the standard clinical work flow, providing a novel way to inform therapy decisions.

PD-L1 in MDAMB231 tumors = target: T5, PD-L1 in MDAMB231 tumors (Homo sapiens, UniProt Q9NZQ7); assay: Tumor PD-L1 engagement by PD-L1 mAbs measured with [64Cu]WL12, MDAMB231 xenografts; format: in vivo
T5 construct: MDAMB231 breast cancer cells, which naturally express PD-L1; endogenous in cells; host or cells: MDAMB231 (ATCC); as xenografts in NSG mice for the in vivo units
T5 sequence (Q9NZQ7 19-290): as above
Description: To evaluate the effect of dose on tumor PD-L1 occupancy at the tumor, mice bearing MDAMB231 tumors were injected with escalating doses of AtzMab from 0.009 to 24 mg/kg body weight.

[4] = target: T6, PD-L1 in HCC827, H226, hPD-L1 and MDAMB231 cells (Homo sapiens, UniProt Q9NZQ7); assay: [64Cu]WL12 binding to PD-L1-positive cells in the presence of 60 nM mAbs; format: cell-based; settings: 60 nM mAb vs PBS control
T6 construct: Each of which naturally expresses PD-L1; endogenous in cells; host or cells: HCC827, H226, MDAMB231 (endogenous) and CHO-hPD-L1 (stably transfected)
T6 sequence (Q9NZQ7 19-290): as above
Description: Non-interacting residues are shown in gray. […] Mean fluorescence intensities were determined by flow cytometry.
HCC827 and H226 non-small cell lung cancer (NSCLC) cells also were tested.

PD-L1 in hPD-L1 tumors = target: T7, PD-L1 in hPD-L1 tumors (Homo sapiens, UniProt Q9NZQ7); assay: Tumor PD-L1 engagement by AtzMab measured with [64Cu]WL12, hPD-L1/CHO tumors; format: in vivo, mouse; settings: AtzMab 20 mg/kg 24 h prior to tracer
T7 construct: expressed in transfected cells; grown as tumours in NSG mice for the in vivo units
T7 sequence (Q9NZQ7 19-290): as above
Description: 2.1.3.3 PD-L1 therapeutic antibody accumulation in the tumors by PD-L1 PET: While evaluating the specificity of WL12 for PD-L1, it was discovered that WL12 competes with AtzMab to the same binding site on PD-L1. This provides a novel and previously unanticipated means to evaluate AtzMab therapy at tumor sites, where it is needed, using PD-L1-directed PET. Improved understanding of the distribution of PD-L1 antibodies in tumors may impact clinical antibody dosing and therapeutic monitoring. Therefore, the ability of [^64Cu]WL12-PET to assess AtzMab binding to PD-L1 within tumors was tested. Accumulation of radioactivity in hPD-L1 tumors was reduced by 80% in mice injected with AtzMab (20 mg/kg) as quantified by [^64Cu]WL12-PET and biodistribution studies (FIG. 21A, FIG. 21B, and FIG. 21C). […] The applicability of this approach was extended to cancer cell lines with native increase in PD-L1 expression.
To assess the effect of a single dose of AtzMab on targeting different PD-L1 levels in the tumors, PET and biodistribution studies were performed in tumors derived from the CHO-hPDL1 cell line, which has four- to ten-fold higher PD-L1 expression than NSCLC cells (FIG. 36). […] Those observations were confirmed by strong and week immunoreactivity observed in hPD-L1 and CHO tumors, respectively (FIG. 35I).

[5] = target: T8, PD-L1 in A549-iPDL1 cells (Homo sapiens, UniProt Q9NZQ7); assay: Binding studies in doxycycline-inducible A549-iPDL1 cells; format: cell-based; settings: 60 nM mAb
T8 construct: expressed in transfected cells; host or cells: A549 NSCLC cells, lentiviral pINDUCER20, G418-selected, doxycycline-induced
T8 sequence (Q9NZQ7 19-290): as above
Description: To do so, an A549 NSCLC cell line with doxycycline-inducible PD-L1 expression (A549-iPD-L1) was generated. A549 is a Kras G12S lung adenocarcinoma cell line that expresses low PD-L1 at baseline.

reduction in [64Cu]WL12 % ID/g, H226 xenografts (PD-L1 in H226 xenografts): 34%
reduction in [64Cu]WL12 % ID/g, HCC827 xenografts [1]: 47%
potency at inhibiting [64Cu]WL12 binding (PD-L1 in hPD-L1 cells): more potent than WL12
decrease of [64Cu]WL12 uptake in A549-iPDL1 tumors [3]: > 75%
[64Cu]WL12 uptake compared to untreated controls, PET (PD-L1 in MDAMB231 tumors; AtzMab 0.06 mg/kg): no difference
[64Cu]WL12 tumor uptake at 120 h compared to 24 h (PD-L1 in MDAMB231 tumors; AtzMab 0.6 mg/kg): significant increase
target engagement at the tumor (PD-L1 in MDAMB231 tumors; AtzMab 3.2 mg/kg): ~100%
[64Cu]WL12 tumor uptake at 120 h compared to 24 h (PD-L1 in MDAMB231 tumors; AtzMab 10 or 20 mg/kg): no significant temporal difference
PD-L1 occupancy at 24 and 120 h (PD-L1 in MDAMB231 tumors; atezolizumab 10 mg/Kg): complete blockade of PD-L1
less uptake of [64Cu]WL12 in tumors vs saline controls (PD-L1 in MDAMB231 tumors; mAb 24 h prior, 120 min after tracer injection, ex vivo): approximately 60%
[64Cu]WL12 binding to PD-L1-positive cells [4]: inhibited
reduction of [64Cu]WL12 accumulation in hPD-L1 tumors (PD-L1 in hPD-L1 tumors): 80% and 77%
decrease of [64Cu]WL12 binding to doxycycline-treated A549-iPDL1 cells [5]: 65%
Substance: AtzMab: therapeutic PD-L1 antibody Atezolizumab
Kd (human PD-L1): 430 pM
linearity of pharmacokinetics [2]: non-linear PK below 0.6-1 mg/kg and linear PK above 1 mg/kg dose
PD-L1 occupancy at 24 and 120 h (PD-L1 in MDAMB231 tumors; atezolizumab 1 mg/Kg): increased accumulation of [^64Cu]WL12 can be seen at 120 h but not at 24 h
